Results on three molecules are retold here after patent publication US6500934.

Non-standard residues stand in square brackets, D forms with d. No end group written: not given here. Ahx = NCCCCCC(=O)O; βAla = NCCC(=O)O

Experiment [1] concerns the target α-MSH receptor of wild type Xenopus laevis melanophores (Xenopus laevis). The experiment in a line: cell-based or functional assay.
Experiment [2] deals with bombesin receptor expressed in transfected Xenopus laevis melanophores (plasmid pJG3.6BR). Kind of experiment: cell-based or functional assay.

On to SYSMEHFRWGKPVGGG[Ahx]KKKKKKKKKKKKKKKKKKKKC[βAla] (ends and bridges not checked; also: disulfide-linked homodimer via Cys) [α-MSH dimer (disulfide-linked homodimer of …-GGG-εAhx-K(20)-C-βAla)], for which, in experiment [1], the EC50 (at t=30 min.) of pigment dispersion in wild type melanophores was found to be 72.5 nM and the EC50 of pigment dispersion, fold lower than α-MSH monomer came to 5 fold.

B1: Bombesin dimer (disulfide-linked homodimer of C-K(20)-εAhx-GGG-…) (peptide)
peptide: CKKKKKKKKKKKKKKKKKKKK[Ahx]GGGQQRLGNQWAVGHLM-NH2
modifications: ends and bridges not checked; also: disulfide-linked homodimer via N-terminal Cys
Take B1: in experiment [2], the EC50 (t=30 min) of pigment dispersion in melanophores transfected with the bombesin receptor turned out to be 23.4 nM and the EC50 of pigment dispersion, fold lower than bombesin monomer was found to be 5 fold.

Molecule MP[dF]R[dW]FKPVGGG[Ahx]KKKKKKKKKKKKKKKKKKKK[βAla] [α-MSH-ANT monomer (MPdFRdWFKPV-GGGεAhx-K(20)-βAla)] showed an IC50 of inhibition of α-MSH (5 nM) mediated pigment dispersion in wild type melanophores in experiment [1] of 120 nM.
